Consider nine molecules from paper PMC8080067, “Tight binding of cytochrome b5 to cytochrome P450 17A1 is a critical feature of stimulation of C21 steroid lyase activity and androgen synthesis” (The Journal of Biological Chemistry, 2021).

One series deals with T1, P450 17A1 (Homo sapiens, UniProt P05093).
T1 construct: made in house; host or cells: Escherichia coli (P450 17A1 in JM109)
Briefly: Inhibition of reconstituted P450 17A1 steroid oxidation reactions by peptides. The class given is biochemical. The source says:
The “b5 peptide” corresponds to residues 43 to 52 of b5, and the “17A1 peptide” corresponds to residues 347 to 358 of P450 17A1 (see Experimental procedures section and Fig. S7).

Series [1] has as its target T2, Alexa 488-T70C-b5:P450 17A1 complex (Homo sapiens, UniProt P00167+P05093, T70C).
T2 construct: made in house; host or cells: Escherichia coli (P450 17A1 in JM109; T70C-b5 plasmid in DH5α)
In words: Peptide addition to Alexa 488-T70C-b5:P450 17A1 complex (gain of fluorescence). The class given is binding. The following applies: even at a concentration of 160 μM; data not presented. The source says:
Peptides were obtained corresponding to the putative binding sites of P450 17A1 and b5 (see Experimental procedures section and Fig. S7).

In a further series the target is cytochrome c (UniProt P99999). Briefly: fluorescence titration. The following applies: cited from earlier work.
Sequence of cytochrome c (P99999 2-105): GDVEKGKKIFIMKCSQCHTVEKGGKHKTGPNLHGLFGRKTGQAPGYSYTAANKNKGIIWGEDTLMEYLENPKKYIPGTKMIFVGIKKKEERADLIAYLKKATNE
The target of series [2] is P450cam (Pseudomonas putida) (UniProt P00183). Briefly: fluorescence titration. The following applies: cited from earlier work.
Sequence of P450cam (Pseudomonas putida) (P00183 2-415): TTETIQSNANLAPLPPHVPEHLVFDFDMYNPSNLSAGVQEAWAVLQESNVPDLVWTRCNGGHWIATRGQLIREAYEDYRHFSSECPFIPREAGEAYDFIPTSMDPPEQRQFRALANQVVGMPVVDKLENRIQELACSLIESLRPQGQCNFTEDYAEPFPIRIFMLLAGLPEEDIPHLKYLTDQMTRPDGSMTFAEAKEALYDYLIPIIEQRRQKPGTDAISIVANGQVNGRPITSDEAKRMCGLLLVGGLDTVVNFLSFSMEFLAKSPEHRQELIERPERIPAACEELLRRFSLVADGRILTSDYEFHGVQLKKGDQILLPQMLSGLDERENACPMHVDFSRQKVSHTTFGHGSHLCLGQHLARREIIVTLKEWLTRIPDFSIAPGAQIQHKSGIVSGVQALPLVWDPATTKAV
The next series deals with metmyoglobin (UniProt P02144). Briefly: fluorescence titration. The conditions noted are these: cited from earlier work.
Sequence of metmyoglobin (P02144 2-154): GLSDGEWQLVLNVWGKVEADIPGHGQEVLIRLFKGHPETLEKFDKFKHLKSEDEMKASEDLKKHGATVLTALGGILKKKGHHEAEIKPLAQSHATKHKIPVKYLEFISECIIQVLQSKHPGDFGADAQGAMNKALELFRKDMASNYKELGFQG
Series [3] addresses T3, WT P450 17A1 (Homo sapiens, UniProt P05093).
T3 sequence (P05093 1-508): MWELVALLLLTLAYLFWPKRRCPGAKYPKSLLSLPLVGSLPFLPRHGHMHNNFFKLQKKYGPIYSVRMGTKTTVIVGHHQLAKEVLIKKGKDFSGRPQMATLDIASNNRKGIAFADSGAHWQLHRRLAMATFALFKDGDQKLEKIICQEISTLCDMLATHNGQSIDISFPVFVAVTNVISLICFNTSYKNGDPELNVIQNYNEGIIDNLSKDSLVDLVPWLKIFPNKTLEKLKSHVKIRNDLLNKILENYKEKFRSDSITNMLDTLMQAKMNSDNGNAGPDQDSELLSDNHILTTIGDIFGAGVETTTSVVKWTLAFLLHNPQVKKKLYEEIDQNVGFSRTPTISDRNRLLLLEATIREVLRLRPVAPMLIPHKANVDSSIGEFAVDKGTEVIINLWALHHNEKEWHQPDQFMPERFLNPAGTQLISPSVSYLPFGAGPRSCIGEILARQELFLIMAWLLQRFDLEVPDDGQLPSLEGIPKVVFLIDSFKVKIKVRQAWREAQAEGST
The class given is biochemical. Also noted: made in house; host or cells: Escherichia coli (P450 17A1 in JM109). The protocol: Figure S4. Stimulation of lyase activities by b5, T70C- b5, and NanoTemper Blue-T70C-b5. Catalytic assays for the lyase reactions were performed and analyzed as described in the main text.

Series [4] addresses T4, WT P450 17A1 (human, UniProt P05093 1-508).
T4 construct: cytochrome P450 17A1, human; approximate Mr 57 kDa; also called cytochrome P450 17A1; CYP17A1; source: E. coli JM109 (pCW vector), purified (Ni2+-NTA)
T4 sequence (looked up): T3 sequence (P05093 1-508)
In words: other fluorescence titration; as a1, with pregnenolone present at 10 μM. The conditions noted are these: both partners purified.

For series [5], the target named is T4, WT P450 17A1. In words: other fluorescence titration; as a1, with progesterone present at 10 μM. The following applies: both partners purified.
The target in series [6] is T4, WT P450 17A1. Briefly: stopped-flow fluorescence; dissociation: preformed Alexa 488-T70C-b5:P450 17A1 complex mixed with 30 μM unlabeled b5; excitation 488 nm, emission >530 nm, single exponential. The conditions noted are these: both partners purified.
Series [7] addresses T4, WT P450 17A1. In words: other fluorescence titration; as a1, with 17-OH progesterone present at 10 μM. The conditions noted are these: both partners purified.
The target in series [8] is T4, WT P450 17A1. In words: other fluorescence titration; 50 nM Alexa 488-T70C-b5 in 100 mM potassium phosphate pH 7.4 titrated with P450 17A1 (WT or variant); excitation 480 nm, emission 513 nm; quadratic fit; no substrate; no phospholipid vesicles; apparent Kd. The conditions noted are these: both partners purified.
Series [9] addresses T4, WT P450 17A1. Briefly: other fluorescence titration; as a1, with 17-OH pregnenolone present at 10 μM. The conditions noted are these: both partners purified.
Substrate in series [10]: CC(=O)[C@@]1(O)CCC2C3CC=C4C[C@@H](O)CC[C@]4(C)C3CC[C@@]21C
In words: purified protein, by the assay type. The following applies: other: lyase reaction (conversion to androstenedione or DHEA), pH 7.4, 30.0 °C.

Substrate in series [11]: CC(=O)[C@H]1CC[C@H]2[C@@H]3CCC4=CC(=O)CC[C@]4(C)[C@H]3CC[C@]12C
Briefly: purified protein, by the assay type. The conditions noted are these: other: 17α-hydroxylation, pH 7.4, 30.0 °C.

Substrate in series [12]: CC(=O)C1CCC2C3CC=C4C[C@@H](O)CC[C@]4(C)C3CC[C@]12C
Briefly: purified protein, by the assay type. The following applies: other: 17α-hydroxylation, pH 7.4, 30.0 °C.

Changes are numbered by the printed parent chain. Names and notes keep the numbering of the source. “Also recorded” adds a separate entry of the source. Ends that are not written are not given here.

For orientation: koff means a measure of how fast the partners let go of each other. Higher therefore signals fast dissociation. A word on the Km: it is the concentration of substrate that gives half-maximal velocity. A word on the kcat: it is the maximal rate divided by the concentration of active sites. As usually defined, the kcat/Km is the second-order rate constant that governs catalysis at low substrate concentration.

T1 sequence (P00167 whole entry partner, one chain of several): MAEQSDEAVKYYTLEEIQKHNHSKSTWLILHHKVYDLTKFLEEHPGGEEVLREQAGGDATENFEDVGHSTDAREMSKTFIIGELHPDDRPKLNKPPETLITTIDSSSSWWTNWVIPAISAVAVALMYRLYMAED
T2 sequence (P00167 whole entry T70C, one chain of several): as the sequence (P00167 whole entry partner, one chain of several) above, with T70C counted along it

Turning to “RNRLLLLEATIR [P450 peptide, R N R L L L L E A T I R]”, the “inhibition of progesterone 17α-hydroxylation” value against P450 17A1 is recorded as “only at the very highest concentration”. Further, the “inhibition of lyase reaction (17α-OH pregnenolone)” value against P450 17A1 (b5 present at 10-fold higher concentration than P450, listed as P450 17A1 peptide) is reported as “more inhibitory to the lyase reaction (17α-OH pregnenolone) than the b5 peptide; also recorded: weak inhibition”.

Regarding “EHPGGEEVLRE [b5 peptide, E H P G G E E V L R E]”, the “gain of fluorescence of Alexa 488-T70C-b5:P450 17A1 complex” value in series [1] is on record as “did not result in a gain of fluorescence”.

Take “cytochrome b5 (T65C labeled) (from UniProt P00173)”: the Kd (with cytochrome c; in series [2]; in the series with metmyoglobin) was 1000 nM each time.

B1: Blue-T70C-b5: T70C-b5 labeled with the proprietary NanoTemper BLUE fluorescent dye (protein, UniProt P00167 2-134, looked up, variant T70C)
Cytochrome b5: AEQSDEAVKYYTLEEIQKHNHSKSTWLILHHKVYDLTKFLEEHPGGEEVLREQAGGDATENFEDVGHSCDAREMSKTFIIGELHPDDRPKLNKPPETLITTIDSSSSWWTNWVIPAISAVAVALMYRLYMAED
modifications: NanoTemper BLUE fluorescent dye label
For the molecule B1, the “stimulation of lyase activities” value with WT P450 17A1 [3] was “stimulated the lyase reactions”.

B2: Alexa 488-T70C-b5 (natural protein, human)
chain: MAEQSDEAVKYYTLEEIQKHNHSKSTWLILHHKVYDLTKFLEEHPGGEEVLREQAGGDATENFEDVGHSCDAREMSKTFIIGELHPDDRPKLNKPPETLITTIDSSSS
modifications: Alexa Fluor 488 maleimide conjugated to the cysteine of T70C; extent of modification 74%
notes: cytochrome b5 (CYB5A, b5), human, T70C; printed theoretical mass 16.9 kDa; Heme protein; also called labeled b5; fluorescently labeled variant of human b5
B2: the Kd came out at 12 ± 5 nM in the series with WT P450 17A1 [4]; 5.8 ± 2.3 nM in the series with WT P450 17A1 [5]; 6 ± 1 nM with WT P450 17A1 [7]; 2.5 ± 0.6 nM with WT P450 17A1 [8]; 2.2 ± 1 nM with WT P450 17A1 [9]. In the series with WT P450 17A1 [6], this molecule returned an off-rate constant (koff) of 1.9 ± 0.2 s⁻¹.

B3: WT P450 17A1 (Homo sapiens) (protein)
chain: T3 sequence (P05093 1-508)
For B3, in [10] (WT), the Km was 6.7 ± 2.1 µM, the kcat was found to be 0.0917 s⁻¹ and the specificity constant (kcat/Km) came to 13800 M⁻¹ s⁻¹. In [11] (WT), the Km came to 7.8 ± 1.4 µM, the kcat was determined as 0.107 ± 0.00833 s⁻¹ and the kcat/Km was 13700 M⁻¹ s⁻¹. In addition, in [12] (WT), the Km was found to be 0.47 ± 0.20 µM, the kcat was 0.0147 ± 0.000833 s⁻¹ and the kcat/Km worked out at 31700 M⁻¹ s⁻¹.

B4: P450 17A1 R358Q variant (Homo sapiens; R358Q) (protein)
chain: T3 sequence (P05093 1-508) with R358Q
Turning to B4, the Km in series [10] (R358Q) stood at 10 ± 5 µM; in series [11] (R358Q) it was 4.6 ± 0.7 µM; in [12] (R358Q), 2.6 ± 1.4 µM. Also, the kcat in series [10] (R358Q) turned out to be 0.000933 s⁻¹; in series [11] (R358Q), 0.00717 ± 0.000333 s⁻¹; in series [12] (R358Q) it was 0.00967 ± 0.0015 s⁻¹. Also, the kcat/Km in series [10] (R358Q) came out at 83.3 M⁻¹ s⁻¹; in [12] (R358Q) it was 3670 M⁻¹ s⁻¹.

B5: P450 17A1 R347H variant (Homo sapiens; R347H) (protein)
chain: T3 sequence (P05093 1-508) with R347H
Turning to B5, in [10] (R347H), the Km was found to be 4.8 ± 1.7 µM, the kcat came to 0.000717 s⁻¹ and the kcat/Km was found to be 150 M⁻¹ s⁻¹. For the same molecule, in [11] (R347H), the Michaelis-Menten constant (Km) came to 8.1 ± 2.2 µM, the catalytic constant (kcat) stood at 0.003 ± 0.000333 s⁻¹ and the kcat/Km amounted to 333 M⁻¹ s⁻¹. For the same molecule, in series [12] (R347H), the Km was 1.5 ± 0.5 µM, the kcat came to 0.00883 ± 0.000667 s⁻¹ and the kcat/Km was 5830 M⁻¹ s⁻¹.

B6: P450 17A1 E305G variant (Homo sapiens; E305G) (protein)
chain: T3 sequence (P05093 1-508) with E305G
For B6, the Km in [10] (E305G) is 9.4 ± 3.7 µM; in [11] (E305G) it was 3.1 ± 0.4 µM; in series [12] (E305G), 5.7 ± 4.6 µM. Moreover, the kcat turned out to be 0.000933 s⁻¹ in series [10] (E305G), 0.00317 ± 0.000167 s⁻¹ in [11] (E305G) and 0.00117 ± 0.000333 s⁻¹ in series [12] (E305G). Besides, the kcat/Km in series [10] (E305G) was found to be 100 M⁻¹ s⁻¹; in series [11] (E305G) it was 1000 M⁻¹ s⁻¹; in series [12] (E305G), 167 M⁻¹ s⁻¹.
